Experiments:
Format in all cases: cell-based
[1] = system: MDA MB 231 cells; experiment: Cell migration, modified Boyden chamber method; settings: 18 hr migration
How it was run: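 MDA MB 231 cells, transfected with FOG2 constructs (24 hr) or treated 2 days with 4 μM peptides/DMSO, were seeded serum-free (1×10^5) in Boyden chambers, serum-free below, 18 hr at 37° C. Giemsa-stained migrated cells counted in six random fields; mean cells per field.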

[2] = system: MCF 7; experiment: Apoptosis by FACS analysis in MCF7 cells; settings: synthesized peptides, FIG. 7D
Description: FIG. 7D is a graph showing the apoptotic effect by synthesized zinc finger domain peptides of FOG2 in MCF7 cells according to FACS analysis;

[3] = system: Hep3B cells; experiment: Apoptosis by FACS analysis in Hep3B cells; settings: synthesized peptides, 48 hr of treatment, FIG. 4B
Description: PI3K inactivation is known to cause cancer cell apoptosis, and FOG2 is known to inhibit PI3K activity. To test whether PI3K inactivation by overexpressing FOG2 induces apoptosis, Hep3B cells treated with the peptide synthesized in <Experiment 3> were analyzed with FACS.

[4] = target: T1, PI3K (Homo sapiens, UniProt P27986); experiment: PI3K activity in MDA MB 231 cells incubated with zinc finger domain peptides; set-up: The cell lysates were immunoprecipitated with p85α (sc-1637, Santa Cruz) and Protein G-Sepharose beads; endogenous in cells; settings: synthesized peptides, FIG. 5
Description: (§1) For measurement of PI3K activity, 10 μl of sonicated PIP2 (1 μg/μl, Calbiochem), 10 μl of 100 mM MgCl2 and 1 μl of [-^32P]ATP (500 μCi/ml) were added to the kinase buffer (10 mM Tris-HCl (pH 7.4), 150 mM NaCl, 1 mM Na3VO4, 10 mM ZnCl2) and incubated at 37° C. for 30 min. After incubation, 20 μl of 6 N HCl was added to stop the reaction and PIP2 was extracted by treatment with 200 μl of methanol:chloroform (1:1) solution. The amount of radioactively labeled PIP2 in the extract was measured using a scintillator counter.
For peptide treatment, cells were trypsinized to detach them from a culture dish and their aliquot (2×10^5 cells) was incubated with 4 μM peptides in 100 mm dishes. The control was incubated with Mock (DMSO).

[5] = target: T1, PI3K; experiment: IGF-1-induced PI3K activation in Hep3B cells incubated with peptides; set-up: The cell lysates were immunoprecipitated with p85α (sc-1637, Santa Cruz) and Protein G-Sepharose beads; endogenous in cells; host or cells: Hep3B; settings: 4 μM peptides, 48 hr, FIG. 2C
Description: as §1
In addition, Hep3B liver cancer cells were incubated with 4 μM peptides for 48 hr and the PI3K activity was analyzed.

[6] = system: MDA MB 231 cells; experiment: Apoptosis by FACS analysis (propidium iodide) in MDA MB 231 cells; settings: for number of apoptotic cells: transfected with 1 μg FOG2 fragment, 2 days, FIG. 7A
Description: PI3K inactivation has been reported to cause cancer cell apoptosis, and FOG2 is known to inhibit the PI3K activity. To test whether PI3K inactivation by overexpressing FOG2 induces apoptosis, MDA MB 231 cells overexpressed FOG2 were analyzed with FACS.
MDA MB 231 cells were incubated with Full-FOG2[1-1151], FOG2[1-412], FOG2[413-789] or FOG2[802-1151]. The cells (5×10^4) were seeded in a 12-well plate and transfected with 1 μg of Full-FOG2[1-1151], FOG2[1-412], FOG2[413-789] or FOG2[802-1151] using Lipofectamine 2000. The cells were incubated at 37° C. for 2 days and subject to FACS analysis.
The cells were incubated with FOG2 fragments and fixed with 70% ethanol for 16 hr. The fixed cells were stained using RNase (5 mg/ml) and propidium iodide ([…]). The amount of DNA in stained cells was analyzed with Cell Quest program of FACS caliber (Becton Dickinson).

[7] = target: T1, PI3K; experiment: PI3K activity in Hep3B cells transfected with FOG2 constructs (p85α immunoprecipitation, 32P-ATP/PIP2 kinase assay); set-up: The cell lysates were immunoprecipitated with p85α (sc-1637, Santa Cruz) and Protein G-Sepharose beads; endogenous in cells; host or cells: Hep3B; settings: 100 ng/ml IGF-1 30 min, FIG. 1C
Description: To investigate the inhibitory effect to PI3K activity by FOG2 zinc finger domain, PI3K activity was analyzed using FOG2 mutants having modified zinc finger domain. Specially, it is known that IGF signaling pathway plays an important role in cancer and the increased IGF-1 level enhances the risk of various cancers in many researches.
Accordingly, the PI3K activity was increased by incubating Hep3B cells with IGF-1 and then measured when the cells were incubated with peptides having mutated FOG2 zinc finger domain.
After Hep3B cells incubation, 100 ng/ml IGF-1 (Insulin like growth factor-1) was added to the cells and incubated for 30 min.
Hep3B cells were transfected with pCK-flag (control), FOG2-wt (wild type) and FOG2 mutants having modified zinc finger domain (FOG2-ZF-5-m and FOG2-ZF-6-m). Two days later, the lysates were obtained using a lysis buffer (20 mM Hepes (pH7.4), 100 mM NaCl, 20 mM KAc, 10 mM MgCl2, 10 mM ZnCl2, 1 mM Na3VO4, 1% NPO4). The cell lysates were immunoprecipitated with p85α (sc-1637, Santa Cruz) and Protein G-Sepharose beads using the same method above. After binding to beads, the lysates were washed 2 times with the lysis buffer and one time with the wash buffer (0.1 M Tris-HCl (pH 7.4), 5 mM LiCl, and 0.1 mM Na3VO4).
as §1

[8] = system: Akt; experiment: Akt phosphorylation by Western blot in transfected Hep3B cells after IGF-1 stimulation; settings: FIG. 1D
Description: Hep3B cells were transfected with FOG2 mutants having modified zinc finger domain to measure the effect on the Akt signaling by FOG2-ZF-5m. The Akt activity was measured by analyzed Akt phosphorylation.
Hep3B cells were transfected with pCK-flag (control), FOG2-wt (wild type) and FOG2 mutants having modified zinc finger domain (FOG2-ZF-5-m and FOG2-ZF-6-m) and stimulated with IGF-1. The expression of Akt (Cell signaling Technology, USA), pAkt (Cell signaling Technology, USA) and GAPDH(Santa cruz, USA) were measured by Western blot analysis.

[9] = system: HCT116 cells; experiment: Apoptosis by FACS analysis in HCT116 cells; settings: 2 days after transfection, FIG. 4A
Description: PI3K inactivation is known to cause cancer cell apoptosis, and FOG2 is known to inhibit PI3K activity. To test whether PI3K inactivation by overexpressing FOG2 induces apoptosis, HCT116 cells transfected with pCK-flag (control), FOG2-wt (wild type) and FOG2 mutants (FOG2-ZF-5-m and FOG2-ZF-6-m) were analyzed with FACS.

[10] = system: MDA MB 231 cells; experiment: Cell proliferation MTT assay; settings: transfected with 100 ng DNA, 3 days post-transfection, FIG. 6A
How it was run: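 Cells (2×10^3/well) were treated with 4 μM peptide for 3 days, or transfected with 100 ng FOG2 wild-type or zinc-finger mutant plasmid and assayed 3 days later. MTT (2 mg/ml) was added for 1 h at 37 °C, dissolved in DMSO, and absorbance was read at 590 nm.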

T1 sequence (P27986 whole entry, the tested form may be a part): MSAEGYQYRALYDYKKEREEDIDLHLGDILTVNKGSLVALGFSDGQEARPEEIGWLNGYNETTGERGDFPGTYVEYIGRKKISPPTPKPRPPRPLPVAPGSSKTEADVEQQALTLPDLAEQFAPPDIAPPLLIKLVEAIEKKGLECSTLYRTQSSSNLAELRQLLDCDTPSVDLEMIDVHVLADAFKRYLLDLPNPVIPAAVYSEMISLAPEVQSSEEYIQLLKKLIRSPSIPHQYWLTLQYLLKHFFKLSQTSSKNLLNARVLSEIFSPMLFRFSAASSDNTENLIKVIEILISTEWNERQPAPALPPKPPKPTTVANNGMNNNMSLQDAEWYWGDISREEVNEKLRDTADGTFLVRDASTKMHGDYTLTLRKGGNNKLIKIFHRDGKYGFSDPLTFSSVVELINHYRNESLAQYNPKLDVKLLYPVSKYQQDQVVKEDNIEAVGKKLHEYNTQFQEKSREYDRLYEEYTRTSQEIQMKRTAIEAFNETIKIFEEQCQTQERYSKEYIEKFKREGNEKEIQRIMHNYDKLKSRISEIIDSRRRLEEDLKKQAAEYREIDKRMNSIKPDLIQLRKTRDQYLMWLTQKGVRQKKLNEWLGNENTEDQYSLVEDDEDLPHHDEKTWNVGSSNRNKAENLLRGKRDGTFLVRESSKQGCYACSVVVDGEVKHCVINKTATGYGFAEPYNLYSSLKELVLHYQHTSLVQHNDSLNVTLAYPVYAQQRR

| PI3K activity [4] | IGF-1-induced PI3K activation [5] | Molecule | reduction of cell migration ([1]; 4 μM peptide, 2 days of treatment, FIG. 3B) | apoptosis [2] | apoptosis [3] | apoptosis ([6]; synthesized peptides, FIG. 7C) | reduction of cell migration ([1]; transfected 24 hr, FIG. 3A) | PI3K activation by IGF-1 stimulation [7] | number of apoptotic cells ([6]; listed as FOG2[1-1151]) | number of apoptotic cells ([6]; listed as Full-FOG2[1-1151]) | Akt phosphorylation [8] | Akt phosphorylation ([8]; listed as FOG2-ZF-wt) | apoptosis [9] | reduction of cell proliferation [10] |
| --- | --- | --- | --- | --- | --- | --- | --- | --- | --- | --- | --- | --- | --- | --- |
| decrease PI3K activity | inhibited | ZF-5-wt-20: The peptide comprising a portion of the fifth zinc finger domain of FOG2 (20 amino acids) (CFECNITFNNLDNYLVHKKH) | reduce the cell migration | promoted apoptosis | induced apoptosis | promoted apoptosis |  |  |  |  |  |  |  |  |
|  |  | FOG2-wt: The wild type of FOG2; full-length FOG2 cDNA cloned into the pCK-flag vector and overexpressed (protein, left off: small tags and cut ends, The wild type of FOG2; full-length FOG2 cDNA cloned into the pCK-flag vector and overexpressed) MSRRKQSKPRQIKRPLEDAIEDEEEECPSEETDIISKGDFPLEESFSTEFGPENLSCEEVEYFCNKGDDEGIQETAESDGDTQSEKPGQPGVETDDWDGPGELEVFQKDGERKIQSRQQLPVGTTWGPFPGKMDLNNNSLKTKAQVPMVLTAGPKWLLDVTWQGVEDNKNNCIVYSKGGQLWCTTTKAISEGEELIAFVVDFDSRLQAASQMTLTEGMYPARLLDSIQLLPQQAAMASILPTAIVNKDIFPCKSCGIWYRSERNLQAHLMYYCSGRQREAAPVSEENEDSAHQISSLCPFPQCTKSFSNARALEMHLNSHSGVKMEEFLPPGASLKCTVCSYTADSVINFHQHLFSHLTQAAFRCNHCHFGFQTQRELLQHQELHVPSGKLPRESDMEHSPSATEDSLQPATDLLTRSELPQSQKAMQTKDASSDTELDKCEKKTQLFLTNQRPEIQPTTNKQSFSYTKIKSEPSSPRLASSPVQPNIGPSFPVGPFLSQFSFPQDITMVPQASEILAKMSELVHRRLRHGSSSYPPVIYSPLMPKGATCFECNITFNNLDNYLVHKKHYCSSRWQQMAKSPEFPSVSEKMPEALSPNTGQTSINLLNPAAHSADPENPLLQTSCINSSTVLDLIGPNGKGHDKDFSTQTKKLSTSSNNDDKINGKPVDVKNPSVPLVDGESDPNKTTCEACNITFSRHETYMVHKQYYCATRHDPPLKRSASNKVPAMQRTMRTRKRRKMYEMCLPEQEQRPPLVQQRFLDVANLNNPCTSTQEPTEGLGECYHPRCDIFPGIVSKHLETSLTINKCVPVSKCDTTHSSVSCLEMDVPIDLSKKCLSQSERTTTSPKRLLDYHECTVCKISFNKVENYLAHKQNFCPVTAHQRNDLGQLDGKVFPNPESERNSPDVSYERSIIKCEKNGNLKQPSPNGNLFSSHLATLQGLKVFSEAAQLIATKEENRHLFLPQCLYPGAIKKAKGADQLSPYYGIKPSDYISGSLVIHNTDIEQSRNAENESPKGQASSNGCAALKKDSLPLLPKNRGMVIVNGGLKQDERPAANPQQENISQNPQHEDDHKSPSWISENPLAANENVSPGIPSAEEQLSSIAKGVNGSSQAPTSGKYCRLCDIQFNNLSNFITHKKFYCSSHAAEHVK |  |  |  |  | approximately 80% | inhibited | reduces the apoptosis | increased | decreased | inhibited | increased apoptosis | about 40% |

— patent US20130116185A1, “PHOSPHATIDYLINOSITOL 3-KINASES ACTIVITY REGULATOR INCLUDING THE FIFTH ZINC FINGER DOMAIN OF FOG2” (SNU R&DB FOUNDATION, priority 2010, published 2013)
